Measured values published in paper PMC2814788.

Target: C-terminally myc-tagged Sec8 (Sec8-myc) (S. cerevisiae) (UniProt P32855)
Assay: co-IP

Sequence of UniProt P32855 (P32855 whole entry): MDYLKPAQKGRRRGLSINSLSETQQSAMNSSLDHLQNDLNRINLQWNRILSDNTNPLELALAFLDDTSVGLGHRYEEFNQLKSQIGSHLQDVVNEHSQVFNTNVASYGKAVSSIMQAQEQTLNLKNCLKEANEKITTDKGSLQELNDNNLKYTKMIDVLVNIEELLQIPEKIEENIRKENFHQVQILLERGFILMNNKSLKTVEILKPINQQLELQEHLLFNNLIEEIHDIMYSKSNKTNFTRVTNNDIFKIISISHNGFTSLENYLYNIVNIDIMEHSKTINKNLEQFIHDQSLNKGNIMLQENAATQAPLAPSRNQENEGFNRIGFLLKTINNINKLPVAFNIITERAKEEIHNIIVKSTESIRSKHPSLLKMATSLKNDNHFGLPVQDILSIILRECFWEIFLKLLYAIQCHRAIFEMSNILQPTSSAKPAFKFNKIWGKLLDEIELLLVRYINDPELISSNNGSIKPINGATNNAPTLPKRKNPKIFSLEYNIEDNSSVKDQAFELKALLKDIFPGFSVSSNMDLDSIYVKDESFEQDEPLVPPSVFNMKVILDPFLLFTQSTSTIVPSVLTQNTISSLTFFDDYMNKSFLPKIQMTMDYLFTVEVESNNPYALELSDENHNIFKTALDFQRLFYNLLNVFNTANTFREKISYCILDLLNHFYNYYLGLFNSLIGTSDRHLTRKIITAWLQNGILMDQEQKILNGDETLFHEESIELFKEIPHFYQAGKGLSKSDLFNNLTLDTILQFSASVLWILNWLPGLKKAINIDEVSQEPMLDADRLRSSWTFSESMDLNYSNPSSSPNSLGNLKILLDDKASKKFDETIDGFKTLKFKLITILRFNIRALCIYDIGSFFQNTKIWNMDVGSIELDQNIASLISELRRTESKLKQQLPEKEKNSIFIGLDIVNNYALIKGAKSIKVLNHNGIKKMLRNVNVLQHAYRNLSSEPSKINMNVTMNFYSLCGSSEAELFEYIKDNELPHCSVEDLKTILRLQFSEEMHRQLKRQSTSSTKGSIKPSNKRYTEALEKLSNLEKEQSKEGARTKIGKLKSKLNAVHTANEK

Exo70-E557K (gain-of-function mutant, in yeast lysate) (from UniProt P19658 63-623) (natural protein)
reduction of coprecipitated Exo70 against wild type: 25%
